Experimental data reported in publication PMC8196545 (Cell reports, 2021).
Positions count from the first letter of the chain named.

B1: c13160 (antibody, V domains shown)
VH: QLHLQESGPGLVKPSETLFLTCTVSGGSMSSSSYYWVWIRQPPRGRDWSRIGSIYYTGSTLTTTHPWRVESLLSVDTSKNQFSLKMNSVTAADTARYYCASSGLYAFWGQGILVPVSS
VL: DAVVTQSPLVLPVTLGQPASISCRSNQSLLFGEGNTYLNWFQQRPGQSPRRLIHNISKRDSGVPDRFSGSGSGTDFTLEISRVEAEDVGVYYCMQGIHSPPTWTFGQGTKVEIK
B2: c22674 (antibody, V domains shown)
VH: QVQLVQSGPEVKKPGTSVKVSCKASGYTFSNYAICWVRQAPGQGLEWVGATSAYNDETSYAQKFQGRVTVTRDSSTSTAYLELRSLRSEDSAVYYCARGGYYESSGSDASDYYAMDVWGQGTTVTVSS
VL: SYELTQPPSVSVSLGQMARITCSGDALSKKYVYWYQQKPGQVPVLVMYQDTERPSGIPERFSGSTSGTIVTLIIGGVQAEDEADYFCLSADDSGTYVVFGGGTKLTVL
B3: c9369 (antibody, V domains shown)
VH: QVQLVQSGAEVKKPGSSVKVSCKASGGSFSDFGISWVRQAPGQGLEWMGGIIPGFETANYGQDFQGRVTMTADESTGTAYMEVRRLRSEDTAVYYCATTGQQNDYYSSGASYKLNYYFGLDVWGQGTAVSVSS
VL: QSVLTQPPSSSGTPGQRVTISCSGSSSNIGSNTVNWYQQLPGTAPKVVISANHQRPSGVPDRFSASKSGASASLAISGLQSEDEADYYCAAWDDSRNAWVFGGGTKLTVL
B4: c9370 (antibody, V domains shown)
VH: EVQLVESGGGVVQPGGSLRLSCAASGFTFYSHTMIWVRQAPGKGPQYISHISSTGSNKDYSDSVKGRFTVSRDNDKNSLYLQMDSLRVEDTAIYYCARRSCSLTDCFVRSFSYDMDVWGQGTAVTVSS
VL: QSALTQPASMSGSPGQSISISCTGTTSDIGGYDSVCWYRQHPGEAPTLLIYDVSNRPSGVSGRFSGSKSANTASLTISGLQAEDEADYYCSSYSTGSSLVVFGGGTKLTVI
B5: c9416 (antibody, V domains shown)
VH: B3 VH with K12R, V83L, A110L, F118L
VL: B3 VL with T33S, T43A
B6: c5333 (antibody, V domains shown)
VH: EVQLLESGGGLVKPGGSLRLSCEASGYTFDSYGMSWVRQVPGQGLEWVSAINPNGRGTDYADSVKGRFTISRDNSRNILYLNMKNLRADDSAIYYCAKEWQLPFYPSLGPKFDFWGLGTRVTVSS
VL: YIALTQSPLSLAVTPGEPASISCKSSQSLLHSNGFHFLDWYLQKPGKSPQLLIFLGFRRASGVPDRFSASGSGTDFILQISRVEAEDVGVYFCMQGLQTPLTFGGGTKLEIK
B7: c7490 (antibody, V domains shown)
VH: QVRLIQSGTLVARPGSSVKVSCQAPGDILANDAVAWVRQAPGQSLEFLGGLPSNFAVGVRAPKFEDRLSIKVDRATKTVHMELRDLTFDDTAIYYCVTCPQRTSVVMSFYFQHWGQGSLVAVSS
VL: DIQMTQSPASVSASVGDRVTISCRASEEISGRLAWYQQRPGQGPKLLISHTSTLQSGVPSRFTGSGSGTDFTLTISSLQPEDSATYYCQQAQYFPPTFGQGTRLDLK
B8: c5482 (antibody, V domains shown)
VH: EVQLVESGGGLAQPGGSLRLSCAASGFDFNNYWFYWVRQAPGRGLVWVARVNADGSNTRYVDSVRGRFTISRDSAKKIVYLEMNSVRDEDTAIYYCSRDTFVRVSSTHGYWSGMDVWGHGTTVTVAS
VL: SNELTQPPSVSVSPGQTATITCSGDVLSRQFVYWYQQKPGRAPVLVMYKDNERPSGIPERFSASSSGTRVTLTISGVQAEDEADYYCQSADNNGAHVFGTGTSVIVL
B9: c8603 (antibody, V domains shown)
VH: AVQFLQSGAEVKKPGESLKISCQDRGYGFNDYWIAWVRQMPGKGLEWMGLIYPDDSDTRYSPSFQGQVTILADKSINTAYLQWNSLKASDSAIYYCARLMVVDERSENTFDIWGQGTVVTVSS
VL: SSGLTQSPSLSVSPGQTATVTCSGDPLVNHFASWYQQQPGQSPILVIYQDNQRPSGIPERFSGSKTGNTATLTIGETQAADEADYFCQSWDITTAGMIFGGGTKLTVL
B10: c9517 (antibody, V domains shown)
VH: QVKLQESGPGLVKPSETLSLTCVVSGVSISQSDYFWNWLRQTPGKGLEWLGFISYSGDSFFNPSLGSRLAMSVDTSSNHISLSLKSMTAADAAVYYCARTFCDDVKCYPLFDSWGHGKLVAVSS
VL: DIVMTQSPDSLPLSPGERASINCQSSQSVLYSSDNRNYLAWYQLKPGQPPKLLIYWASVRASGVPDRFSGSGSGTDFTLSISSLQAEDVAVYYCQQYYITPYSFGQGTKVEIR
B11: c8452 (antibody, V domains shown)
VH: EVQLDQSGAEMRKPGTTVKISCKVSGYTTTTDYYVHWVQQAPGKGPQWVGLINVEDGDTIYAEAFQGRVSITADTSKRRVFLDLSGLTSEDSALYFCTTQSLETDTGDYVSAFDSWGQGTLVSVSP
VL: QSVLTQPPSVSAAPGQKVIISCSGRTSSVGTNFVSWYQQVPGAAPKLLIYDNENRPSGISDRFSASTSGTSATLAITALQSGDEADYYCGTWDSGLNPAIFVFGTGTRVSVL
B12: c754 (antibody, V domains shown)
VH: QVQLVQSGPEVKKPGASARVSCKASGYMFSNNGISWVRQAPGQGLEWMGWISPQNGETLYAHKFQGRVSLTMDTSTNTAFLELTRLRSDDTAVYFCAREAHEDCGEENCFAETWLDTWGQGTQIIVSS
VL: QSVLTQPPSASGTPGQRITMPCSGSNSNIGRRSVCWFQQFPGAAPKVVLYKDSQRPSGVPDRFSGSKSGTSASLTISGLRSDDEADYFCAAWDDSLNVWAFGGGTKLTVL
B13: c6539 (antibody, V domains shown)
VH: QVRLIQSGTEVARPGSSVRVSCQVPGDILDKNAVAWVRQAPGQVPEFMGGLPSNFAYGVRAQKFEDRLSIIPDRSTNTVDMILRSVTSHDTAIYYCVTCPHRTTVIMSFYFEFWGQGTLVAVSS
VL: DVTVTQSPASVSASVGDRVTISCRASEDLMGRLAWYQQKPGHAPKLLISHTSTLQSGVPSRFTGSGSGADFTLTISSLQPEDSATYYCQQAQRFPPTFGQGTRLEIK
B14: c11461 (antibody, V domains shown)
VH: AGHLVESGGKLIRPGGSLSLSCVASGFTFRNAHMTWVRQVPGQGLEWIALMKSHADGSHTDYSPSVKNRCAISRDDSTSSLYLHLYNLQLDDTGIYFCVHLSSPDEWGLGTPVTVYS
VL: HIVLTQSPVTLSGSQGDTVALSCRANESLRSHLAWYQQRPGQRPKLLIYEVSRRPPATPPRFSGSGSGTDFTLIIRGLEPEDSAVYYCQQGDFWPFSFGQGTNLEIT
B15: c5407 (antibody, V domains shown)
VH: QMQLQESGGGRVRPLETLSLACSVSGGSISGDGYYWTWIRQTPGRALEWIGHIHHYGITNYNPSLKSRLTISLDKPKNQFFLTLTSVTVADTALYFCARTFYTFWSGPHDFLDLWGHGTAVIISL
VL: EIVMTQSPVTLSASPGERVALSCRASQSISTKLAWYQQRPGQAPTLLISGASSRASGTPARFSGSGSGADFTLTISTLQPEDFVLYFCQQYKEWPLTFGPGTKLEIK
B16: c9433 (antibody, V domains shown)
VH: QVQLVQSAAELRKPGESVKVSCKASGYRFTSYAISWVRQAPGQGLEWMGWMSPHSRTANYAQRFQGRVTMTTDTSTSTASMELRTLRSDDTAIYYCARRVYDWDIKETRLDPWGQGTLVTVSS
VL: not shown
B17: c7487 (antibody, V domains shown)
VH: AVTLRQSASEVKKPGTTLKMSCKGSGFSFAESFIYWFRQAPGKRPEYLGLIVPGVSDTVYPDNLKARVAITADTSIETVYLQLSSLTSEDTAVYFCATTTYCSPETCEVAFDVWGQGTTIIVSA
VL: QSALTQPPSASGTPGQRVTIPCSGGSSNVGNNFVSWYQQLPGTAPRLLIYQDNVRPSGVPDRFSGSKSGASASLVISGLRSEDEADYYCCSWEDSLRGPLFGGGTKVTVL
B18: c9596 (antibody, V domains shown)
VH: EVQLVQSGAEVKKPGTTIKISCKVSGYSFTDSFIHWLKQTPGKGPEWMGLIDPEASDGNKLYAERFQGRLTITADTTTDTAYMELSSLTSDDTAIYYCASQSPSFSDNSRFYGFFDHWGQGTLVNVAS
VL: DIVMTQSPDSLTVSLGERATFNCKSSQSVLDSSDNKNYLSWYQQKPGRPPKLLIYWASIRRSGVPDRFSGSGSGTDFTLTISSLQAEDAAVYFCQQYHTAPFTFGPGTKVDIK
B19: c8597 (antibody, V domains shown)
VH: EVKLEASGGGLAQPGQSLRLSCIGSGFKFADYGLSWVRQTPGKGLQWVGFIRGRGSEATKHYAASVAGRFSMSRDDSKNIAYLQMKNLKTYDTGVYYCAREQYSFDFWSGYEDPYYYYMDLWGRGTTVTVSS
VL: DIQMTQSPAALSASIGDRVTISCRASQNIRDWVAWYQQKPGKAPNLLIYRASTLQTAIPSRFSASGFGTDFTLTISSLQPDDFATYFCQHYNSHFTGYSFGQGTKLEIK
B20: c27194 (antibody, V domains shown)
VH: QVHLVQSGDELKKPGSSVKVSCTAAGGTLNKYPITWVRQAPGQGLEWMGTLSPLFGTTDYGQKFQGRLTITTDGSAAHMVLAALTPDDTAVYFCATDKAMGVLPALHFWGQGTLITVSS
VL: EIVLTQSPGTLFLSPGERASLSCRASQNIGGLLAWYQQKPGQSPRLLIYDASNRATGIPARFSGSGSGTDFTLTISSLEPGDIAIYFCQQRSSWPVTFGGGTKVQIK
B21: c7484 (antibody, V domains shown)
VH: AVHLTQSGTEVKRPGTSVRISCKGSGFVFRDSFIYWLRQAPGKGPQYLGLIDPGNADTVYPDNFKDRVSITADTSVSTTYLELRRLQFDDTALYFCATTTYCSADSCELALDVWGQGTTVTVSS
VL: QSLLTQPPSASGAPGQSVTISCSGGASNIENNYVVWYQQVPGTAPKLIIYQDNVRPSGVPDRFSGSKSGASGSLLISGLRSEDEADYYCSSWDDSVRGPLFGGGTKVTVL
B22: c2785 (antibody, V domains shown)
VH: QVQLVQSGAEMKKPGSSVKVSCKASGGSFRSFTVNWVRQAPGQGLEWVGRIIAIFGSVDYAQKFQGRVTISADESTSTFYMDIRSLKSEDTAVYYCVRDGLVGGRDFWGQGTQVTVSS
VL: EIVLTQSPGTLSLSPGERATLFCRASQSIKKNYVAWYQQNPGQAPRLLIYGASSRATGTPDRFSGSGSGTDFTLTISRLEPEDFAVYYCQQYGSAQYSFGQGTKLEIK

molecular target: HIV-1 NL4-3 Env on infected cells (HIV-1 group M subtype B, NL4-3 (pNL4-3 …, strain))

Row | Binder | binding result
1 | B1 | binds
2 | B2 | binds
3 | B3 | binds
4 | B4 | binds
5 | B5 | binds
6 | B6 | binds
7 | B7 | binds
8 | B8 | binds
9 | B9 | binds
10 | B10 | binds
11 | B11 | binds
12 | B12 | binds
13 | B13 | binds
14 | B14 | binds
15 | B15 | binds
16 | B16 | binds
17 | B17 | binds
18 | B18 | binds
19 | B19 | binds
20 | B20 | binds
21 | B21 | binds
22 | B22 | binds
